Tests used:
clone 37 = test: Presentation of exogenous MAGE-A3 by HLA-DR13 dendritic cells to clone 37 (IFN-γ ELISA); format: cell-based, human; settings: 10^4 HLA-DR13 dendritic cells in 100 μl pre-incubated 24 h; 2500 clone 37 cells, 20 h
Description: Clone 37 was obtained with autologous dendritic cells heavily loaded with MAGE-A3 protein. To determine the ability of dendritic cells that capture a quantity of MAGE-A3 protein released by a few MAGE-A3^+ cells to stimulate CD4^+ T cells, HLA-DR13 dendritic cells were incubated for 24h with decreasing concentrations of MAGE-A3 as depicted in (FIG. 9A). Stimulation of clone 37 was tested by washing the cells, distributing the cells in round-bottomed microwells, and adding 2500 clone 37 cells. IFN-γ secretion was measured by ELISA after 20h of coculture. Experiments were performed in triplicate. Half maximum production of IFN-γ was obtained when 10^4 dendritic cells in a volume of 100 μl were pre-incubated with 30 ng of MAGE-A3, the quantity of MAGE-A3 present in around 2×10^4 MZ2-MEL.43 tumor cells.

[1] = tested on: CD4 T cell clone LB 1555 CD4 436/B6.37; test: Recognition of retrovirally transduced cells by CD4 T cell clone (IFN-γ ELISA); format: cell-based, human; settings: overnight coculture
Description: The EBV transformed cells were infected by resuspending the cells in an infection cocktail and centrifugation. Target cells were resuspended in 60 mm tissue culture plates (Falcon) at a density of 1.0×10^6 cells in 4 ml infection cocktail. The plates were centrifuged for 2 hours at 32° C. and 1200 rcf in an IEC centrifuge, rotor type 228. For each plate to be transduced, 4 ml of […] was prepared by diluting the viral supernatant 1:2 in EBV cell growth medium and adding protamine sulfate to a final concentration of 6 μg/ml. Centrifugation was followed by another 2 hours of incubation in a humidified incubator at 37° C. and cells were transferred to 4 ml of target cell growth medium. This transduction cycle was carried out immediately after plating the cells and was repeated at 24 and 48 hours. […]
5000 T cells of LB705 CTL 434/1 or 3000 T cells of clone LB1555 CD4 436/B6.37 were washed and cultured overnight in the presence of 5000 retrovirally transduced EBV B cells of MZ2-EBV, or LG2-EBV B cells, in 100 μl ID medium containing 10% HS, AAG and 50 U/ml rh IL-2 in a round-bottom 96 wells plate. […] After three washings the plates were incubated with 50 μl per well horseradish peroxidase conjugated streptavidin (1:3000 in PBS/0.5% BSA) for 30 min at RT, which was detected by TMB substrate, and H2SO4 to stop the reaction. The optical density was read at 450 nm. […]

B1: MAGE-A3: MAGE-A3 protein; recombinant His-MAGE-A3 produced in E. coli, or expressed from MFG MAGE-A3 retrovirus in Example 6 (protein, listed as Homo sapiens)
chain: MPLEQRSQHCKPEEGLEARGEALGLVGAQAPATEEQEAASSSSTLVEVTLGEVPAAESPDPPQSPQGASSLPTTMNYPLWSQSYEDSSNQEEEGPSTFPDLESEFQAALSRKVAELVHFLLLKYRAREPVTKAEMLGSVVGNWQYFFPVIFSKASSSLQLVFGIELMEVDPIGHLYIFATCLGLSYDGLLGDNQIMPKAGLLIIVLAIIAREGDCAPEEKIWEELSVLEVFEGREDSILGDPKKLLTQHFVQENYLEYRQVPGSDPACYEFLWGPRALVETSYVKVLHHMVKISGGPHISYPPLHEWVLREGEE
modifications: His tag
Clone 37
  quantity of MAGE-A3 giving half maximum production of IFN-γ: 30 ng
[1]
  recognition of transduced MZ2 EBV by CD4 clone 436/B6.37 (IFN-γ release): not recognized

Source: patent US6716809B1, “Mage-A3 peptides presented by HLA class molecules” (priority 1997, dated 2004)
